Source: patent US20250108100A1, “C-TERMINAL FRAGMENT OF APOLIPOPROTEIN E AND APPLICATION THEREOF IN INHIBITING y-SECRETASE ACTIVITY” (SYNPHATEC (SHANGHAI) BIOPHARMACEUTICAL TECHNOLOGY CO., LTD., priority 2022, published 2025)
“Also recorded” adds a separate entry of the source.

Tests used:
5×FAD mice = assay: Amyloid plaques in brain of 5×FAD mice after AAV neuronal expression; assay type: in vivo, mouse
Protocol: 0-7 months old C57 wild-type mice and AD model mice (5×FAD mice [Tg6799], mice expressing APP and PS1 comprising pathogenic mutations. The expressed APP comprises three mutations: K670N/M671L, I716V, V717I; and PS1 comprises two mutations: M146L, L286V). The mice were given sufficient food and water, and were reared at room temperature with a 12 h/12 h light-dark cycle, and the feeding environment reached the SPF (Specific Pathogen Free) standard.
• a) The brain was taken by perfusion. The mice were perfused at the heart, the blood was washed out with 20 ml PBS, and then the mice were perfused with 20 ml 4% PFA. • b) Fixation and dehydration. The mice were fixed with 4% PFA at 4° C. for 24 hours, and then dehydrated with 30% sucrose at 4° C. • c) Mouse brain slices. After 24 hours of dehydration, the mice brain was cut into slices at a thickness of 40 μm, stored in frozen buffer solution or used for subsequent immunohistochemistry. • d) THS staining. The mouse brain slices were washed three times with ddH2O, 5 minutes each; soaked in 1% THS aqueous solution for 10 minutes; washed twice with 80% ethanol, each time for 3 minutes; washed once with 95% ethanol for 3 minutes. Immunohistochemistry was performed subsequently. If THS staining is not performed, the following immunohistochemistry was performed directly. • e) Immunohistochemistry. The mouse brain slices were washed three times with 1×PBS for 10 minutes each time; the cell membrane was permeated using 0.1% Triton-X100; the brain slices were blocked by using 5% donkey or goat serum; then the primary antibody was incubated at 4° C., shaken overnight (12-16 h); washed three times with 1×PBS for 10 minutes each time; the secondary antibody was incubated, shaken at room temperature for 1-2 h; washed three times with 1×PBS for 10 minutes each time. • f) Patching and sealing. • g) Imaging, 24 hours post sealing. • h) Images were processed and signal density was analyzed by Image J.
Adeno-associated virus AAV-CT (AAV2/9-hSyn-ApoE CT) and AAV-GFP (AAV2/9-hSyn-EGFP-WPRE-pA) expressed in neurons were purchased from Tertu Biotechnology Company.
1 μl of the adeno-associated virus prepared above was injected into the cerebral cortex (x, y, z, +/−1.6, 0, −1) and hippocampus (x, y, z, +/−1.5, −2, −1.5) of 1-month-old mice by using a stereotaxic injection device.
Human APP and PS1 with five fAD mutations are expressed in neurons of 5×FAD mice: K670N/M671L+I716V+V717I mutations in APP and M146L+L286V mutations in PS1 (Oakley et al., 2006). All mice were housed under a 12 h light-dark cycle (light from 8 am to 8 pm) with ad libitum access to food and water. All mouse procedures were performed in accordance with the Guide for the Care and Use of Laboratory Animals of the Chinese Academy of Sciences and the National Institutes of Health.
Mice were anesthetized with isoflurane and perfused with 4% PFA. Dissected mouse brains were fixed overnight in 4% PFA and cryoprotected overnight in 30% sucrose. A cryostat (Leica, CM3050S) was used to obtain frozen brain slices ([…]) from fixed and cryoprotected mouse brains. Floating slices were washed 3 times with ddH2O and then incubated with 1% THS (SIGMA) in water for 5 minutes at room temperature. Next, the slices were washed twice with 80% ethanol and once with 95% ethanol for 3 minutes each. The samples were washed with ddH2O and 3 times with 1×PBS before IHC.
After being deeply anesthetized with isoflurane, mice (5 weeks old) were placed in a stereotaxic apparatus (RWD Instruments). The zero point (x, y, z, 0, 0, 0) is Bregma. Lentivirus (lentivirus-GFP, lentivirus-ApoE and lentivirus-ApoE-IRES-GFP) and AAV (AAV2/9-hSyn-EGFP-WPRE-pA and AAV2/9-hSyn-ApoECT; purchased from Shanghai Taitool Bioscience Co. Ltd.) were injected into the cortex (x, y, z, +/−1.6, 0, −1) or hippocampus (x, y, z, +/−1.5, −2, −1.5), injected 1 ul on each injection site. The mice were then returned to their cages for rehabilitation after surgery.

APP mutants = assay: α-CTF produced by APP variants with AD-related mutations co-expressed in HEK 293T cells; assay type: cell-based, human
Protocol: Plasmids were transfected in HEK 293T or N2A cells for 36-48 hours and then lysed in cell lysis buffer [10% 1M tris-HCl (pH=6.8), 4% SDS, 20% glycerol, 0.01% bromophenol blue]. Lysates were shaken at room temperature for 10 min, then boiled for 10 min, and centrifuged at 12,000×g for 10 min. Proteins were run on 8% or 12% Tris-glycine SDS-PAGE and transferred to PVDF membranes (Life Technologies). Samples were incubated overnight at 4° C. with primary antibody diluted in 5% BSA buffer (in 1×TBST). After washing 3 times with 1×TBST, they were incubated with secondary antibody diluted in 5% BSA buffer (in 1×TBST) for 2 hours at room temperature. Finally, after washing 3 times with 1×TBST, the signal was detected by ECL Western blotting substrate (Solarbio, PE0010).

B1: ApoE CT: C-terminal fragment of ApoE, positions 216-299 of SEQ ID NO: 12; SEQ ID NO: 33 (protein)
chain: ARMEEMGSRTRDRLDEVKEQVAEVRAKLEEQAQQIRLQAEAFQARLKSWFEPLVEDMQRQWAGLVEKVQAAVGTSAAPVPSDNH
5×FAD mice; AAV at 4 weeks, after 10 weeks, subiculum, vs GFP
  average plaque size: significantly reduced
5×FAD mice; AAV at 4 weeks, six months expression, subiculum, vs GFP
  average area of each amyloid plaque: smaller
5×FAD mice; after 10 weeks, subiculum
  percentage of total amyloid plaque area: significantly reduced
  plaque density: significantly reduced
5×FAD mice; six months expression
  density of amyloid plaques: decreases; also recorded: lower
  proportion of total area of amyloid plaques: smaller proportion
5×FAD mice; six months expression, THS
  fluorescence intensity of amyloid plaques: weaker
APP mutants; APP A673T
  effect on α-CTF levels, Icelandic mutation: no difference
APP mutants; APP fAD mutations near γ cleavage site (T714I, V717F, L723P)
  ability to increase α-CTF levels compared to WT APP: significantly reduced
APP mutants; HEK 293T cells
  α-CTF produced by all tested APP mutants: increased α-CTF
APP mutants; HEK 293T cells, APP mutation that cannot conduct β-cleavage
  α-CTF produced by APPM596V: able to increase α-CTF
APP mutants; fAD mutations near β- or α-cleavage site (KM670/671NL, E693K, E693A)
  effect on α-CTF levels, WT APP vs APP mutants: no statistically significant difference
